The source of these data is patent publication US20200399344A1 (SHATTUCK LABS, published 2020).

Like-named read-outs stand apart in the source and are kept apart here.

A word on the EC50 (read off the curve): it is the concentration at which the effect is half-maximal.

To fix the notation:
B2: recombinant human CD2 protein (rhCD2-His) (receptor, UniProt P06729 25-209, looked up)
chain: KEITNALETWGALGQDINLDIPSFQMSDDIDDIKWEKTSDKKKIAQFRKEKETFKEKDTYKLFKNGTLKIKHLKTDDQDIYKVSIYDTKGKNVLEKIFDLKIQERVSKPKISWTCINTTLTCEVMNGTDPELNLYQDGKHLKLSQRVITHKWTTSLSAKFKCTAGNKVSKESSVEPVSCPEKGLD
notes: also called recombinant CD2 protein; not shown: His tag
B5: recombinant human CD58-Fc fusion protein (rhCD58-Fc) (Fc fusion, UniProt P19256 29-215, looked up)
chain: FSQQIYGVVYGNVTFHVPSNVPLKEVLWKKQKDKVAELENSEFRAFSSFKNRVYLDTVSGSLTIYNLTSSDEDEYEMESPNITDTMKFFLYVLESLPSPTLTCALTNGSIEVQCMIPEHYNSHRGLIMYSWDCPMEQCKRNSTSIYFKMENDLPQKIQCTLSNPLFNTTSSIILTTCIPSSGHSRHR
notes: Positive control; also called recombinant hCD58-Fc protein; not shown: Fc

The target of test [1] is T1, hCD2 expressed on CHO-K1/hCD2 cells (human, UniProt P06729 25-351).
T1 construct: whole, on cells
T1 sequence (looked up): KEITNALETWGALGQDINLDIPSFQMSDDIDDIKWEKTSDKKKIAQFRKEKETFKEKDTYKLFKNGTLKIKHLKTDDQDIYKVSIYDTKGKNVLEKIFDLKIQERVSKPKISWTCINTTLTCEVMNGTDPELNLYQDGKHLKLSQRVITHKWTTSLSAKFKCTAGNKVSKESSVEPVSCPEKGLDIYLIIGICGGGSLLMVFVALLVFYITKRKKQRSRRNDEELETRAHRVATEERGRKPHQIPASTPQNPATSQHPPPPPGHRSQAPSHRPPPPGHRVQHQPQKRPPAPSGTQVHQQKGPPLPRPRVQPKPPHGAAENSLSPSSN
The experiment in a line: flow cytometry cell binding assay, CHOk1 cells, axis label GEO Mean - PE MFI. On the technique in general: Flow cytometry measures light scatter and fluorescence of single cells or particles in a stream.

The target in test [2] is T2, recombinant HLA-E-His protein (human, UniProt P13747 22-305, limits assumed).
T2 construct: also called recombinant HLA-E (HLA-E-His); not shown: His tag
Description: ELISA: the chimeric protein is the titrated coat (1:3), detection HLA-E-His (Novus NBP2-47435PEP), HRP Anti-6x-His-HRP. Here is the method:
In a complementary experiment, increasing amounts of the hCD48-Fc-NKG2A, hCD58-Fc-NKG2A, and hCD80-Fc-NKG2A chimeric proteins or a negative control protein was coated on plates. Recombinant HLA-E-His protein was added to the plates for capture by the plate-bound chimeric proteins or the negative control protein. The captured HLA-E-His protein was detected using an anti-6×-His-HRP antibody.
(In general: In an ELISA, binding on a coated surface is turned into a signal by an enzyme label.)

For test [3], the target named is B5. The experiment in a line: ELISA: coat rhCD2-His (Acro CD2-H5226), detection Anti-hFc-HRP. Here is the method:
(§1) Recombinant human CD2 (rhCD2) protein was coated on plates. Increasing amounts of the indicated chimeric proteins or Recombinant human CD58-Fc fusion protein (rhCD58-Fc) were added and detected using an anti-mFc-HRP (for mCD80-Fc-NKG2A) or anti-hFc-HRP (for rest of the proteins).
(§2) CD2 is a transmembrane protein in T cells that binds to its ligand CD58 on APC in humans and on CD48 in rodents. To understand whether the CD48 and CD58 parts of the hCD48-Fc-NKG2A, and hCD58-Fc-NKG2A chimeric protein can bind CD2, ELISA-based assays were performed. Briefly, recombinant human CD2 protein (rhCD2-His) was coated on plates and increasing amounts of the hCD48-Fc-NKG2A, hCD58-Fc-NKG2A, and mCD80-Fc-NKG2A chimeric proteins and recombinant hCD58-Fc protein was added to the plates for capture by the plate-bound recombinant CD2 protein. The […] chimeric protein served as a negative control and recombinant hCD58-Fc protein served as a positive control. The hCD48-Fc-NKG2A and hCD58-Fc-NKG2A, chimeric proteins and recombinant hCD58-Fc protein bound to the recombinant CD2 protein was detected using an anti-human Fc HRP. The mCD80-Fc-NKG2A chimeric protein bound to the recombinant CD2 protein was detected using an anti-mouse Fc HRP.

Test [4] addresses T2, recombinant HLA-E-His protein. The experiment in a line: ELISA: the chimeric protein is the titrated coat (1:3), detection HLA-E-His (Novus NBP2-47435PEP), HRP Anti-6x-His-HRP. The method, then: Similarly, increasing amounts of the hTGFBR2-Fc-NKG2A and hSLAMF6-Fc-NKG2A chimeric proteins chimeric proteins or a negative control protein was coated on plates. Recombinant HLA-E-His protein was added to the plates for capture by the plate-bound chimeric proteins or the negative control protein. The captured HLA-E-His protein was detected using an anti-6×-His-HRP antibody.
The source holds these as a separate data set.

Test [5] addresses T3, anti-human IgG antibody (plate-bound).
T3 construct: also called anti-human Fc antibody
The experiment in a line: ELISA (single sided Fc): coat Anti-Human IgG (H+L) Jax# 109-005-088, detection HRP Goat anti-human FCgamma. The method, then:
Anti-human IgG was coated on plates and increasing amounts of the indicated chimeric proteins were added to the plates. hIgG was used as a positive control, and mCD80-Fc-NKG2A was used as a negative control. The binding was detected using an anti-human Fcgamma HRP.
To understand whether the Fc linkers from the native chimeric proteins can be accessed by anti-human antibodies, ELISA-based assays were performed. For these assays, an anti-human IgG antibody was coated on plates and increasing amounts of the hCD86-Fc-NKG2A and hTGFBR2-Fc-NKG2A, mCD80-Fc-NKG2a chimeric proteins, and a human IgG antibody were added to the plates for capture by the plate-bound anti-human antibody. The human IgG antibody was used as a positive control and to generate a standard curve. The mCD80-Fc-NKG2a chimeric protein was included as a negative control as containing a non-human Fc domain. The protein bound to the anti-human IgG antibody was detected using an anti-human Fcgamma HRP.

Test [6] concerns the target T4, recombinant human 2B4 protein (rh2B4-His) (human, UniProt Q9BZW8-2 22-221, limits assumed).
T4 construct: also called recombinant 2B4-His protein; not shown: His tag
T4 sequence (looked up): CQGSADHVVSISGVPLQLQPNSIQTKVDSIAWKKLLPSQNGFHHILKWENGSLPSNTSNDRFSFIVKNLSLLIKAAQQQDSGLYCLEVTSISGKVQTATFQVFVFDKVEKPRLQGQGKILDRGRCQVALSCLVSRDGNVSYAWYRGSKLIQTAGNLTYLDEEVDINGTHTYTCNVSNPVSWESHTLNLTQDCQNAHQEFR
Description: ELISA: coat rh2B4-His (Sino 10042-H08H), detection Anti-hFc-HRP. Here is the method:
Increasing amounts of the indicated chimeric proteins or rhCD48-Fc were added and detected using an anti-mFc-HRP (for mCD80-Fc-NKG2A) or anti-hFc-HRP (for rest of the proteins).
CD48 is the ligand for 2B4. To understand whether the CD48 parts of the hCD48-Fc-NKG2A chimeric protein can bind 2B4, ELISA-based assays were performed. Briefly, recombinant human 2B4 protein (rh2B4-His) was coated on plates and increasing amounts of the hCD48-Fc-NKG2A and mCD80-Fc-NKG2A chimeric proteins and recombinant human CD48-Fc (rhCD48-Fc) protein was added to the plates for capture by the plate-bound recombinant 2B4 protein. The hCD48-Fc-NKG2A chimeric protein and recombinant human CD48-Fc (rhCD48-Fc) protein bound to the recombinant 2B4 protein was detected using an anti-human Fc HRP. The mCD80-Fc-NKG2A chimeric protein, which was used as a negative control, bound to the recombinant 2B4 protein was detected using an anti-mouse Fc HRP.

In test [7] the target is B2. Description: ELISA: coat rhCD2-His (Acro CD2-H5226), detection Anti-hFc-HRP. Here is the method:
as §1, §2

Test [8] concerns the target T5, recombinant human SLAMF6-Fc (rhSLAMF6-Fc) protein (human, UniProt Q96DU3 22-226).
T5 construct: not shown: Fc
T5 sequence (looked up): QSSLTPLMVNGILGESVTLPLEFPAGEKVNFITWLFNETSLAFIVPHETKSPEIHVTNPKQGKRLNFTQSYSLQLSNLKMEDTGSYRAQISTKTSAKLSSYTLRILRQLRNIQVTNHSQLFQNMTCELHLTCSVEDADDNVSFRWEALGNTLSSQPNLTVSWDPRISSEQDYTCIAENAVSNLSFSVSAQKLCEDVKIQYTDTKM
Description: dual ELISA; coat rhSLAMF6-Fc, hSLAMF6-Fc-NKG2a titrated, detection HLA-E-His, Anti-His-6x-HRP; the signal needs both bindings. Here is the method:
Increasing amounts of the hSLAMF6-Fc-NKG2A chimeric protein was added and detected using HLA-E-His. A chimeric protein comprising ECD of a type II transmembrane protein other than NKG2A was used as a negative control.
To understand whether the hSLAMF6-Fc-NKG2A chimeric protein can binds simultaneously to both hSLAMF6 and HLA-E, the following ELISA experiment was carried out. Briefly, and recombinant hSLAMF6 (rhSLAMF6-Fc) protein was coated on plates. Increasing amounts of the hSLAMF6-Fc-NKG2A chimeric protein was added to the plates for capture by the recombinant human SLAMF6-Fc (rhSLAMF6-Fc) protein. Further, recombinant HLA-E (HLA-E-His) protein was added to the plate for capture by hSLAMF6-Fc-NKG2A chimeric protein. The binding of the HLA-E-His protein was detected using an anti-His 6× HRP antibody.

T2 sequence (P13747 22-305 limits assumed): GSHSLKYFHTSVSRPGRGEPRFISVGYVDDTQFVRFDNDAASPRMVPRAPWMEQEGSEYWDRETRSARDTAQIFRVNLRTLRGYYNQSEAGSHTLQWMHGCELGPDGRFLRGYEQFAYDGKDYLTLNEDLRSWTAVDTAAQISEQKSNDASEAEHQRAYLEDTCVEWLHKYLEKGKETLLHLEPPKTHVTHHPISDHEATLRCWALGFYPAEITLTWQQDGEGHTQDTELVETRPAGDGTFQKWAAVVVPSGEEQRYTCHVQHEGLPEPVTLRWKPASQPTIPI

B1: human CD58-Fc-NKG2A chimeric protein (Fc fusion)
chain: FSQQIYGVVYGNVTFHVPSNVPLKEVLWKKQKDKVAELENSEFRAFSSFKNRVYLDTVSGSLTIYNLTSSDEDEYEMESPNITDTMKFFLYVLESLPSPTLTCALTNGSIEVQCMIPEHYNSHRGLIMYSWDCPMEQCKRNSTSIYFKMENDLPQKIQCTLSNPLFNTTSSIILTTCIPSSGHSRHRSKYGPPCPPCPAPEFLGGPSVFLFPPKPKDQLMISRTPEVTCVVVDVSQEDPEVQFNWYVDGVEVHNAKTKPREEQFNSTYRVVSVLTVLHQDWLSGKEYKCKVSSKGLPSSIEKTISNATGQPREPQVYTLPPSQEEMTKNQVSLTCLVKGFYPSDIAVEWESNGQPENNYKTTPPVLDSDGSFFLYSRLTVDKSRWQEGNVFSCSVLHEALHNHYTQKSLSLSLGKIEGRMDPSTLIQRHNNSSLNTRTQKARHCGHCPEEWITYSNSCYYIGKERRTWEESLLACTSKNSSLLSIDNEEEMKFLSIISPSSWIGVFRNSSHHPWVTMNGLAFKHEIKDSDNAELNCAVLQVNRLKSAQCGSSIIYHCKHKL
notes: also called hCD58-Fc-NKG2A
On to B1, for which the figures for the concentration for a half-maximal effect (EC50 (read off the curve)) in test [1] and in test [2] were about 1 µg/mL and about 0.7 µg/mL, respectively.

Turning to B2, the binding result in test [3] is reported as “binds”.

B3: human TGFBR2-Fc-NKG2A chimeric protein (Fc fusion)
chain: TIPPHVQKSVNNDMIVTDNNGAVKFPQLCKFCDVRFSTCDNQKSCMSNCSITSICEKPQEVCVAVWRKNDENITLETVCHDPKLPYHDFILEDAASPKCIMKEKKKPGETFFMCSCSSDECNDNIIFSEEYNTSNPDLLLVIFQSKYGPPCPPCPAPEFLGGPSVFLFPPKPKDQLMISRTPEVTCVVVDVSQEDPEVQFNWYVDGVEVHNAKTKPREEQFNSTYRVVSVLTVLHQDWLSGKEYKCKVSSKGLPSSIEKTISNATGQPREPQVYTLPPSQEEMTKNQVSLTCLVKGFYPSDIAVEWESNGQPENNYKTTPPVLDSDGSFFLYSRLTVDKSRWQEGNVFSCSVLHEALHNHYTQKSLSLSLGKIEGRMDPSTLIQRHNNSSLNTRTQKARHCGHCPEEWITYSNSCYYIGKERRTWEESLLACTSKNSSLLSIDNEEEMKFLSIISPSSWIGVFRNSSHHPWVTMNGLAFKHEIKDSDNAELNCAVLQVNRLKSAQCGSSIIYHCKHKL
notes: also called hTGFBR2-Fc-NKG2A
Regarding B3, the concentration for a half-maximal effect (EC50 (read off the curve)) in test [4] is about 5 µg/mL; in test [5] it was about 10 µg/mL.

B4: recombinant human CD48-Fc (rhCD48-Fc) protein (Fc fusion, UniProt P09326 27-220, looked up)
chain: QGHLVHMTVVSGSNVTLNISESLPENYKQLTWFYTFDQKIVEWDSRKSKYFESKFKGRVRLDPQSGALYISKVQKEDNSTYIMRVLKKTGNEQEWKIKLQVLDPVPKPVIKIEKIEDMDDNCYLKLSCVIPGESVNYTWYGDKRPFPKELQNSVLETTLMPHNYSRCYTCQVSNSVSSKNGTVCLSPPCTLARS
notes: Comparator; not shown: Fc
Consider B4, for which, in test [6], the binding result is listed as “binds”.

For the molecule B5, the half-maximal effective concentration (EC50 (read off the curve)) in test [7] was about 1 µg/mL.

B6: human SLAMF6-Fc-NKG2A chimeric protein (Fc fusion)
chain: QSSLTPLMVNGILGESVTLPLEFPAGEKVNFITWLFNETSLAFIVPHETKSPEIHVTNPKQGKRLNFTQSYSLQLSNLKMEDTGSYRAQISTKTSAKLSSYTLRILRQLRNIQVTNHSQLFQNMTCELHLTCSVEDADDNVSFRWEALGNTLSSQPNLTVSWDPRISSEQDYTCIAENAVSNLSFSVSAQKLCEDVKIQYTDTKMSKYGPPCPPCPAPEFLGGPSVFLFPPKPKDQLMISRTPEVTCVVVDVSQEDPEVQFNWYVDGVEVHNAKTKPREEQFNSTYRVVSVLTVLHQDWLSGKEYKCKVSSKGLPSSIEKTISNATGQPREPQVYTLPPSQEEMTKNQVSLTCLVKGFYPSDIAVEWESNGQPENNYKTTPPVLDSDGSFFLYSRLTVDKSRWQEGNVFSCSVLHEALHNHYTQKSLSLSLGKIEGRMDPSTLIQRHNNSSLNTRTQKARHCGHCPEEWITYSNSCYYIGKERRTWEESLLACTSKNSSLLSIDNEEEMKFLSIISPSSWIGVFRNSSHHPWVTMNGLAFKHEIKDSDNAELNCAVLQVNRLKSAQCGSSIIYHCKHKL
notes: also called hSLAMF6-Fc-NKG2A
On to B6, for which the concentration giving a half-maximal response (EC50 (read off the curve)) in test [4] is about 6 µg/mL; in test [8] it was about 30 µg/mL.
